Measured values taken from the supplement of paper PMC9170038.

System: MS2 coat protein
Assay: apparent KD of MS2 coat protein; higher = weaker reporter binding
Conditions: Eterna round: R107
Procedure, shortened: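 Titration buffer: 100 mM Tris-HCl pH 7.5, 80 mM KCl, 4 mM MgCl2, without or with constant ligand. Designed RNA switches transcribed on-chip from Illumina sequencing clusters received SNAP-549-labelled MS2 coat protein in twofold steps from 0.7 or 1.5 nM to 3 µM. Apparent KD is the median per design of fits to normalised cluster binding curves.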

[1] = input ligand: theophylline 20 uM
[2] = input ligand: theophylline 2 mM
[3] = input ligand: tryptophan 2.4 mM

Sequence	apparent KD of MS2 coat protein (input ligand: arginine 13.2 mM) [nM]	apparent KD of MS2 coat protein (input ligand: none) [nM]	apparent KD of MS2 coat protein [1] [nM]	apparent KD of MS2 coat protein [2] [nM]	apparent KD of MS2 coat protein [3] [nM]
CUAAGAGCGGCGGCCGCCACUGGUAACCAAGAGGCGGAGCCUCUGACAUGAGGAUCACCCAUGUUCAGGACCGGGUCGUCUUAGA [#07 Same State - Tryptophan B]	7.23	12.2	13.6	18.5	10.9
CUAUAUAUAUCGGCCGCCACUUACUCAUGAGGUAACAACAUGAGGAUCACCCAUGUUUGAGGAUCAAGGACCGGGAUAUAUAUAG [AstrosSSTryB#15]	31.8		33.4	32.6	
CUAUAUGGAAACAUAUAGAAGCGAAAGCAGCGAGGACCGGUACGGCCGCCACUCGCAGAGUGGUGGACAUGAGGAUCACCCAUGU [Design 2]	43.8	83.2	111	74.6	40
CUAUAUUAUAGAAGGAGCGUCGAAAAUGGGUAAACAUGAGGAUCACCCAUGUAAAGGGAACGACAGGUAGGUCGCUAUAAUAUAG [AstromonsSSArgB#13]	117	220	201	252	195
CUAUAUUUAUCGGCCGCCACUUACUCAUGAGGUAACAACAUGAGGAUCACCCAUGUUUGAGGAUCAAGGACCGGGAUAAAUAUAG [AstrosSSTryB#17]	25.4		34.2	31	
CUAUCCUUGCCGGAUGAAGGACACUGAGAAGGAGCGCGGUAAUCCGCAGGUAGGUCGCUCAGGAGUACAUGAGGAUCACCCAUGU [Xeonrave]	16.1	20.8	26.9	23.7	20.7
CUCCCGUGGUCGGCCGCCACUGGAGGCCUCGCGCGACAUGAGGAUCACCCAUGUUGGCCCGGCUUCAGGACCGGGAUCGCGUGAG [#1 Same State - Tryptophan B Attempt #8 (HarryS)]	12.2		16.2	12.6	
CUGACGUAGGAAGAUAUCUGGAACAAGGAUACCAGUAAACCAACAUACCCUUGGCAGCCUAAAACAUGAGGAUCACCCAUGUAAU [theeternabot_exclusion_MS2_Theo_A_26]	11.9		14.2		13.7
GACAUGAGGAUAGAUACCAGCGACAUGAGGAUCACAUGAGGAUCACCCAUGUGUAGUAUACGCCCUUGGCAGCUAACAUGAGGAU [Same State Theophylline B 3]	59.5		129		68.1
GACAUGAGGAUCACCCAUGUACCGCGAGAAGGAGCGCGGAUAAACGCAGGUAGGUCGCUCGUGGGCUUAUAUUCAAUUGUAAGCU [Usence]	24.8	33.2	43.1	44.6	30.4
GACCCAUGAGUUGGAAAAGCUCAUGGGUCGCGAGGACCGGUACGGCCGCCACUCGGCUGUACAUGAGGAUCACCCAUGUCAGGGU [#1 Same State - Tryptophan A Attempt #25 (HarryS)]	96.9	125	614	573	711
GAGCUGAUGUAGAAAUUUUAUUUAUGAGAUACCAGUACAGAAAUGUACCCUUGGCAGCUCAUUUUUACAUGAGGAUCACCCAUGU [Ex Theophylline A 14]	13.5		12.8		13.3
GAGUAGAGGACGGCCGCCACUGAACAUGAGGAUCACCCAUGUCGUGAUCCGUUACCUAAAGAAGAUAGGACCGGGUCAUGUACUC [Exclusion Tryptophan B GF 19]	28.9		41.7	32.7	
GAUGAACUAUAUGAUACCAGACAACAUGAGGAUCACCCAUGUGAAUGUCGUCCUCUGCCUGUCCCUUGGCAGCGUAUAGUUUAUC [XTheo B #15]	29.3		67.6		20.3
